# Molecular target: the molecule itself
# Assay: native MS; 200 mM ammonium acetate, 0.062% C10E5, nanoelectrospray, Orbitrap EMR, room temperature; sample expressed with kifunensine and treated with EndoH
protein,measurement,value
"TREK2^N84Q (TREK2 residues 55-335, T58A, N144Q, C-terminal StrepTag-II) (domain or fragment, UniProt P57789-1 55-335, looked up, remaining inner core GlcNAc on Asn after EndoH cleavage; potential modifications of the glycan, TREK2, two-pore domain potassium channel, UniProt P57789-1, residues 55-335 with T58A; The text introduces the mutant as N144Q and then calls it TREK2^N84Q; The Addgene plasmid is named for the parent construct with T58A; also called TREK2 N144Q) MEGASQGGLQTVMKWKTVVAIFVVVVVYLVTGGLVFRALEQPFESSQKNTIALEKAEFLRDHVCVSPQELETLIQHALDADNAGVSPIGQSSNNSSHWDLGSAFFFAGTVITTIGYGNIAPSTEGGKIFCILYAIFGIPLFGFLLAGIGDQLGTIFGKSIARVEKVFRKKQVSQTKIRVISTILFILAGCIVFVTIPAVIFKYIEGWTALESIYFVVVTLTTVGFGDFVAGGNAGINYREWYKPLVWFWILVGLAYFAAVLSMIGDWLRVLSKKTKEEVGE",stoichiometry N,2
